Assay results published in article PMC2737084 (Biochemistry, 2009).

Target: the molecule itself
Assay: SEC

B1: Pseudomonas aeruginosa bacterioferritin B (natural protein)
chain: not shown
  stoichiometry N: 24
